Results: patent US20100227772
Like-named read-outs stand apart in the source and are kept apart here.

Tested on: Antennapedia homeodomain (YPWM motif + homeodomain, Antp residues 297-364 in plasmid pAop3)
Details: FCCS

| Substance | Kd (average of 10 saturation curves, single curve of FIG. 2 gives 6.3 nM) [nM] | Kd (average of 3 saturation curves, single curve of FIG. 3 gives 8.6 nM) [nM] |
| --- | --- | --- |
| HB1 (36 bp) | 3.6 |  |
| BS2 (16 bp) |  | 5.1 |
